The results in this text go back to US20210107983A1 (Boehringer Ingelheim, published 2021).

Experiment [1] deals with T1, human B7H6 on HCT-15 cells (human, UniProt Q68D85 25-454).
T1 construct: whole, on cells; also called B7H6-positive HCT-15 cells
T1 sequence (looked up): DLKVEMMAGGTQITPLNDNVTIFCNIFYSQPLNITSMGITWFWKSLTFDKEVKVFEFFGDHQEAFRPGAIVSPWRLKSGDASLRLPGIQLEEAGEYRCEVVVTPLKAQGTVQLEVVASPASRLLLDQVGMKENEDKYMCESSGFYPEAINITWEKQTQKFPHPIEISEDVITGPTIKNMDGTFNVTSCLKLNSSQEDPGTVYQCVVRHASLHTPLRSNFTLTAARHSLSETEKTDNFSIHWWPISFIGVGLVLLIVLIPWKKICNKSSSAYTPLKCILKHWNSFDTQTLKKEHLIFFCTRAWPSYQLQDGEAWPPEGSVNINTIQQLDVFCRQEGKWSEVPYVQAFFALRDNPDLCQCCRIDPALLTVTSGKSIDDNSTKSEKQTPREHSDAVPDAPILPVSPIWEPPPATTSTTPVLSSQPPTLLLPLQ
The experiment can be described thus: flow cytometry on HCT-15 cells, PE anti-human secondary antibody. As for the experimental part: Binding of B7H6/CD3 binding proteins to HCT-15, a human (colo-rectal cancer) CRC cell line was tested by flow cytometry. In a previous experiment, it has been confirmed that HCT-15 cells expresses B7-H6 on the RNA levels as well as the protein level with approximately 8,000 B7-H6 receptors on the cell surface (data not shown). B7H6/CD3 binding proteins were produced, as described in Example 2. HCT-15 cells were stained with increasing concentrations of two-step purified B7H6/CD3 binding proteins in FACS buffer (PBS/0.5% BSA/0.05% sodium azide). Bound molecules were detected with PE-conjugated anti-human secondary antibody (Sigma-Aldrich, #P8047).

The target in experiment [2] is T2, Fc-His-tagged human B7H6 ECD (human).
T2 construct: also called huB7H6-ECD-Fc-His; recombinant human B7H6 ECD
The experiment can be described thus: ELISA, plate coated with Fc-His-tagged human B7H6 ECD, anti-human IgG F(ab')2-peroxidase, TMB. (In an ELISA, binding on a coated surface is turned into a signal by an enzyme label.)

For experiment [3], the target named is T3, Fc-His-tagged human Ala-mutated B7H6 ECD (human).
T3 construct: also called huB7H6-Ala-ECD
The experiment can be described thus: ELISA, plate coated with Fc-His-tagged human Ala-mutated B7H6 ECD, anti-human IgG F(ab')2-peroxidase, TMB. As for the experimental part:
To assess binding of B7H6/CD3 binding proteins to recombinant human Fc-His-tagged B7H6 ECD and human Fc-His-tagged Ala-mutated B7H6 extracellular proteins as described in Example 3, MediSorp™ plates (Nunc, 467320) were coated with […] recombinant proteins overnight at 4° C. The next day, plates were blocked with 0.5% bovine serum albumin (BSA) in phosphate buffered saline (PBS) for 1 hour at room temperature (RT). Subsequently plates were washed with […] containing 0.05% TWEEN®20 viscous liquid and B7H6/CD3 binding proteins were incubated at concentrations ranging from 0.00001 to 10 μg/ml. After an additional washing step, bound B7H6/CD3 binding proteins were detected by a peroxidase conjugated goat anti-human IgG F(ab′)₂-specific secondary antibody (Jackson Immunoresearch) and visualized by TMB substrate solution (Bender Med Systems).

The target of experiment [4] is T1, human B7H6 on HCT-15 cells. The experiment can be described thus: cell-based or functional assay.

B1: B7H6#8/CD3#1 (bispecific antibody, human IgG1, kappa, lambda, L234A L235A)
chain 1: DIVMTQSPLSLPVTPGEPASISCRSSQSLLYNNRYNYLDWYLQKPGQSPEVLIYLGSNRASGVPDRFSGSGSGTDFTLKISRVEAEDFGVYYCMQTLQIPITFGQGTRLEIKRTVAAPSVFIFPPSDEQLKSGTASVVCLLNNFYPREAKVQWKVDNALQSGNSQESVTEQDSKDSTYSLSSTLTLSKADYEKHKVYACEVTHQGLSSPVTKSFNRGECGGGGSEGKSSGSGSESKSTEGKSSGSGSESKSTGGGGSQVQVVQSGAEVKKPGSSVKVSCKGSGDTLNSYGISWMRQAPGQGLEWMGGIIPIFDTTKYAQKFQGRVTITADKSTTTVYMELSSLRFEDTAVYYCARERGYRFSEDYYFYYGMDVWGQGTTVTVSSASTKGPSVFPLAPSSKSTSGGTAALGCLVKDYFPEPVTVSWNSGALTSGVHTFPAVLQSSGLYSLSSVVTVPSSSLGTQTYICNVNHKPSNTKVDKRVEPKSCDKTHTCPPCPAPEAAGGPSVFLFPPKPKDTLMISRTPEVTCVVVDVSHEDPEVKFNWYVDGVEVHNAKTKPREEQYNSTYRVVSVLTVLHQDWLNGKEYKCKVSNKALPAPIEKTISKAKGQPREPQVYTLPPSREEMTKNQVSLWCLVKGFYPSDIAVEWESNGQPENNYKTTPPVLDSDGSFFLYSKLTVDKSRWQQGNVFSCSVMHEALHNHYTQKSLSLSPG
chain 2: EAVVTQEPSLTVSPGGTVTLTCRSSTGAVTTSNYANWVQEKPGQLPRGLIGGTNKRAPWVPARFSGSLLGGKAALTLSGAQPEDEAEYFCALWYSNLWVFGGGTKLTVLGQPKAAPSVTLFPPSSEELQANKATLVCLISDFYPGAVKVAWKADGSPVNTGVETTTPSKQSNNKYAASSYLSLTPEQWKSHRSYSCQVTHEGSTVEKTVAPAECSGGGGSEGKSSGSGSESKSTEGKSSGSGSESKSTGGGGSEVQLVESGGGLVQPGGSLKLSCAASGFTFNTYAMNWVRQAPGKGLEWVARIRSKYNNYATYYADSVKDRFTISRDDSKNTAYLQMNNLKTEDTAVYYCVRHGNFGNSYVSWFAYWGQGTLVTVSAASTKGPSVFPLAPSSKSTSGGTAALGCLVKDYFPEPVTVSWNSGALTSGVHTFPAVLQSSGLYSLSSVVTVPSSSLGTQTYICNVNHKPSNTKVDKRVEPKSCDKTHTCPPCPAPEAAGGPSVFLFPPKPKDTLMISRTPEVTCVVVDVSHEDPEVKFNWYVDGVEVHNAKTKPREEQYNSTYRVVSVLTVLHQDWLNGKEYKCKVSNKALPAPIEKTISKAKGQPREPQVYTLPPSREEMTKNQVSLSCAVKGFYPSDIAVEWESNGQPENNYKTTPPVLDSDGSFFLVSKLTVDKSRWQQGNVFSCSVMHEALHNRFTQKSLSLSPG
notes: scFab-Fc heterodimer, one B7H6 chain and one CD3 chain
A word on the EC50 (read off the curve): it is the concentration giving half of the maximal effect. Low readings indicate higher potency in that assay, high ones lower potency in that assay. As for B1, the “EC50 (read off the curve)” value in experiment [1] was approximately 0.4 nM; in experiment [2] it was approximately 0.05 µg/mL. For the same molecule, in experiment [3], the binding result was “no binding (tested: 10 µg/ml)”. The “EC50 [nM], 72 hour cytotoxicity assay, non-stimulated T-cells (Donor #1) as effector cells, HCT-15 cells as target cells” value in experiment [4] was determined as 0.62 nM.
